Results reported in article PMC3607249.

Target: Sulfolobus islandicus Orc1-1 Walker B mutant E147A (ATP-bound) (Sulfolobus islandicus)
Experiment: AUC

stoichiometry N: 2
Substance: Sulfolobus islandicus Orc1-1 Walker B mutant E147A (ATP-bound) (natural protein)
